# Measurements reported in US20190194347A1, “ANTIBODIES FOR EPIDERMAL GROWTH FACTOR RECEPTOR 3 (HER3)” (NOVARTIS AG, priority 2010, published 2019).
# Substitutions are numbered along the chain they refer to.
# B1: MOR09823 (antibody, V domains shown)
# VH: QVQLVESGGGLVQPGGSLRLSCAASGFTFSSYAMSWVRQAPGKGLEWVSVTGAVGRTYYPDSVKGRFTISRDNSKNTLYLQMNSLRAEDTAVYYCARWGDEGFDIWGQGTLVTVSS
# VL: DIQMTQSPSSLSASVGDRVTITCRASQGISNWLAWYQQKPGKAPKLLIYGASSLQSGVPSRFSGSGSGTDFTLTISSLQPEDFAVYYCQQYSSFPTTFGQGTKVEIKR
# B2: MOR09825 (antibody, human IgG1, kappa, V domains shown)
# VH: QVQLVESGGGLVQPGGSLRLSCAASGFTFSSYAMSWVRQAPGKGLEWVSAINSQGKSTYYADSVKGRFTISRDNSKNTLYLQMNSLRAEDTAVYYCARWGDEGFDIWGQGTLVTVSS
# VL: B1 VL
# B3: MOR10702 (antibody, human IgG1, kappa, V domains shown)
# VH: B2 VH with Q1E, V5L, A50V, N52S, S53A, Q54W, K56H, S57V, T58K
# VL: B1 VL with V85T
# B4: MOR10701 (antibody, human IgG1, kappa, V domains shown)
# VH: B2 VH with Q1E, V5L, A50V, I51T, N52G, S53A, Q54V, K56R, A61P
# VL: B1 VL with V85T
# B5: MOR09824 (antibody, human IgG1, kappa, V domains shown)
# VH: B2 VH with A50V, N52S, S53A, Q54W, K56H, S57V, T58K
# VL: B1 VL
# B6: MOR09974 (antibody, human IgG1, kappa, V domains shown)
# VH: B2 VH with A50V, S53P, Q54S, K56N, S57F, Y59N
# VL: B1 VL
# B7: MOR10703 (antibody, human IgG1, kappa, V domains shown)
# VH: B2 VH with Q1E, V5L
# VL: B1 VL with V85T
# Target: endogenous human HER3 on human cancer cells (SK-Br-3, MCF7, BT-474) (human, UniProt P21860 20-1342)
# Assay: cell-based or functional assay
Binder,"% inhibition of proliferation, BT-474, 10 µg/ml IgG","% inhibition of proliferation, MCF7 (neuregulin stimulated), 10 µg/ml IgG","% inhibition of proliferation, SK-Br-3, 10 µg/ml IgG"
B1,39.8%,82%,39%
B2,37.2%,63%,41%
B3,43.8%,,
B4,43.6%,,
B5,36.8%,82%,33%
B6,,20%,35%
B7,41.6%,81%,35%

# Target: T1, HER3 K267A (CD33-[Human HER3, residues 20-640, K267A]-TAG) (human, UniProt P21860 20-640)
# T1 construct: also called HER3 K267A-Tag; not shown: C-terminal TAG (e.g., FLAG TAG)
# Assay: ELISA titration on coated recombinant mutant HER3
row,Binder,binding result
1,B7,no binding (tested: up to 10 µg/mL antibody (Example 7))

# Target: T2, HER3 L268A (CD33-[Human HER3, residues 20-640, L268A]-TAG) (human, UniProt P21860 20-640)
# T2 construct: also called HER3 L268A-Tag; not shown: C-terminal TAG (e.g., FLAG TAG)
# Assay: ELISA titration on coated recombinant mutant HER3
row,Binder,binding result
1,B7,no binding (tested: up to 10 µg/mL antibody (Example 7))
